Measurements taken from patent US20070009927A1 (published 2007).

Molecular target: T1, Sizn1 bait (full-length Sizn1 coding sequence in pGBKT7) (mouse, UniProt Q9CZA5 1-402)
T1 construct: Yeast two-hybrid bait in AH109 cells; also called Sizn bait construct; Sizn1 as a bait; not shown: fusion partner supplied by vector pGBKT7 (Clontech)
Test: yeast two-hybrid screen of an E11 mouse library

T1 sequence (Q9CZA5 whole entry, the tested form may be a part): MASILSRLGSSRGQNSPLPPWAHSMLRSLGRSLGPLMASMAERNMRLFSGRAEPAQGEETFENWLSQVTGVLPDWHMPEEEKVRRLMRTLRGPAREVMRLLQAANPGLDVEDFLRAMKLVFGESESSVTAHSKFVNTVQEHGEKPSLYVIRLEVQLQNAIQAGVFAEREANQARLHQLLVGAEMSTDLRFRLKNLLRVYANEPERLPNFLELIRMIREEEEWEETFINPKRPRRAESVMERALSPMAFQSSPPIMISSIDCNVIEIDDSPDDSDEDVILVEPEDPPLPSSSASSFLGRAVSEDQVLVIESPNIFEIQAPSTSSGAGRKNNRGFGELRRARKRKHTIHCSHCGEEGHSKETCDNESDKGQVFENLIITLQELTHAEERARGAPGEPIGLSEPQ

B1: amino acids 382-495 of Smad6 corresponding to the MH2 domain of Smad6 (other, mouse, UniProt O35182 382-495, looked up)
chain: RRTRSKIGFGILLSKEPDGVWAYNRGEHPIFVNSPTLDAPGGRALVVRKVPPGYSIKVFDFERSGLLQHADAAHGPYDPHSVRISFAKGWGPCYSRQFITSCPCWLEILLNNHR
notes: Positive prey clone of the yeast two-hybrid screen; also called Smad6 MH2 domain; not shown: library fusion partner of the Matchmaker3 two-hybrid prey vector; not described
B1: binds.
